Test results taken from patent publication US20100137214.

B1: plasmin (protein)
chain: KVYLSECKTGNGKNYRGTMSKTKNGITCQKWSSTSPHRPRFSPATHPSEGLEENYCRNPDNDPQGPWCYTTDPEKRYDYCDILECEEECMHCSGENYDGKISKTMSGLECQAWDSQSPHAHGYIPSKFPNKNLKKNYCRNPDRELRPWCFTTDPNKRWELCDIPRCTTPPPSSGPTYQCLKGTGENYRGNVAVTVSGHTCQHWSAQTPHTHNRTPENFPCKNLDENYCRNPDGKRAPWCHTTNSQVRWEYCKIPSCDSSPVSTEQLAPTAPPELTPVVQDCYHGDGQSYRGTSSTTTTGKKCQSWSSMTPHRHQKTPENYPNAGLTMNYCRNPDADKGPWCFTTDPSVRWEYCNLKKCSGTEASVVAPPPVVLLPDVETPSEEDCMFGNGKGYRGKRATTVTGTPCQDWAAQEPHRHSIFTPETNPRAGLEKNYCRNPDGDVGGPWCYTTNPRKLYDYCDVPQCAAPSFDCGKPQVEPKKCPGRVVGGCVAHPHSWPWQVSLRTRFGMHFCGGTLISPEWVLTAAHCLEKSPRPSSYKVILGAHQEVNLEPHVQEIEVSRLFLEPTRKDIALLKLSSPAVITDKVIPACLPSPNYVVADRTECFITGWGETQGTFGAGLLKEAQLPVIENKVCNRYEFLNGRVQSTELCAGHLAGGTDSCQGDSGGPLVCFEKDKYILQGVTSWGLGCARPNKPGVYVRVSRFVTWIEGVMRNN

Key:
HSACHV3 [1] = tested on: HSACHV3
[2] = tested on: C-terminally His-tagged hirudin variant 3 (HV3)
Chain of C-terminally His-tagged hirudin variant 3 (HV3) (chain, as listed by the source mutant): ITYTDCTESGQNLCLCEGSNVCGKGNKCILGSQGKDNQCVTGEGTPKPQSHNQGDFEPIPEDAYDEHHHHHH

AGPCHV3 = AGPCHV3 (UniProt P02763)
GSTcle3HV3 = molecular target: T1, GSTcle3HV3
T1 chain: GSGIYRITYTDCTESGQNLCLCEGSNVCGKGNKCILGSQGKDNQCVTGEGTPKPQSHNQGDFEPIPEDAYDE

HSACHV3 [3] = molecular target: HSACHV3; remark: listed apart in the source

Chain of AGPCHV3, P02763 (P02763 whole entry, looked up, the tested form may be a part): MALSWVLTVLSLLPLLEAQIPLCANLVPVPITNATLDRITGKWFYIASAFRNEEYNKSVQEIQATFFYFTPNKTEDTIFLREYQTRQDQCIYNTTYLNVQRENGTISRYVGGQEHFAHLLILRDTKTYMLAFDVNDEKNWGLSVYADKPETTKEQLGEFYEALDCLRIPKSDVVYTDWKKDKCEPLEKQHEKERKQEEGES

Row | Molecule | rate of thrombin cleavage of a chromogenic substrate, fusion protein 376 nM without plasmin (HSACHV3 [1]) | rate of thrombin-mediated chromogenic substrate cleavage, starting value for 1500 nM HSACHV3 (HSACHV3 [1]) | % thrombin activity (chromogenic substrate) after reaction of HSAHV3 with plasmin (HSAHV3) | rate of thrombin-mediated chromogenic substrate cleavage, end value after 1500 nM HSACHV3 was combined with 600 nM plasmin (HV3 released) [2] | rate of thrombin cleavage of a chromogenic substrate, fusion protein 376 nM without plasmin (AGPCHV3) | cleavage pattern by SDS-PAGE after plasmin digestion (GSTcle3HV3) | cleavage by plasmin, SDS-PAGE and autoradiography (HSACHV3 [3]) | time- and plasmin-dependent cleavage, Coomassie-stained SDS gel (1500 nM HSACHV3, 600 nM plasmin) (HSACHV3 [3]) | time- and plasmin-dependent cleavage, Coomassie-stained SDS gel (4000 nM AGPCHV3, 600 nM plasmin) (AGPCHV3, P02763)
1 | human α-thrombin | In the absence of plasmin, neither fusion protein had substantial effects upon the thrombin activity | The former reduced the rate of thrombin-mediated chromogenic substrate cleavage from 89.9% to 5.5% | thrombin inhibition was unaffected by the presence of HSAHV3 following reaction with plasmin | The former reduced the rate of thrombin-mediated chromogenic substrate cleavage from 89.9% to 5.5% | In the absence of plasmin, neither fusion protein had substantial effects upon the thrombin activity |  |  |  | 
2 | B1 |  |  |  |  |  | plasmin-dependent polypeptide species were detected, one of which co-migrated with unfused GST, and the other, which migrated slightly more rapidly than Pichia pastoris-derived recombinant hexahisitidinylated HV3 | HSACHV3 was cleaved by plasmin over time, reaching near complete conversion | A time- and plasmin-dependent cleavage pattern of both proteins is shown, yielding a single product for HSACHV3 and two products for AGPCHV3 | A time- and plasmin-dependent cleavage pattern of both proteins is shown, yielding a single product for HSACHV3 and two products for AGPCHV3
